# In IntAct's records for PubMed 26237645:
# B1: Fumarate hydratase, mitochondrial (Homo sapiens), P07954 (parent)
# chain: MYRALRLLARSRPLVRAPAAALASAPGLGGAAVPSFWPPNAARMASQNSFRIEYDTFGELKVPNDKYYGAQTVRSTMNFKIGGVTERMPTPVIKAFGILKRAAAEVNQDYGLDPKIANAIMKAADEVAEGKLNDHFPLVVWQTGSGTQTNMNVNEVISNRAIEMLGGELGSKIPVHPNDHVNKSQSSNDTFPTAMHIAAAIEVHEVLLPGLQKLHDALDAKSKEFAQIIKIGRTHTQDAVPLTLGQEFSGYVQQVKYAMTRIKAAMPRIYELAAGGTAVGTGLNTRIGFAEKVAAKVAALTGLPFVTAPNKFEALAAHDALVELSGAMNTTACSLMKIANDIRFLGSGPRSGLGELILPENEPGSSIMPGKVNPTQCEAMTMVAAQVMGNHVAVTVGGSNGHFELNVFKPMMIKNVLHSARLLGDASVSFTENCVVGIQANTERINKLMNESLMLVTALNPHIGYDKAAKIAKTAHKNGSTLKETAIELGYLTAEQFDEWVKPKDMLGPK
# Variants of: B1
# Conditions: with h2az_human H2AZ1, P0C0S5
# Chain of h2az_human H2AZ1, P0C0S5 (P0C0S5 whole entry): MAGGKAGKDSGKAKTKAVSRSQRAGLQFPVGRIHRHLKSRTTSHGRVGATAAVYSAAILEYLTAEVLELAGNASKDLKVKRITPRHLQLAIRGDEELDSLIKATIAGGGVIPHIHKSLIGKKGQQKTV
row,effect of a mutation on the interaction,Variant
1,disrupting interaction strength,T236A
2,increasing interaction strength,T236D

# Variants of: B1
# Conditions: with h2az_human H2AZ1, P0C0S5
# Remark: another data set of the same source
row,effect of a mutation on the interaction,Variant
1,decreasing interaction strength,T236A
